The record followed here is patent US20110262931A1 (published 2011).

For this assay, the target named is T1, mast cell carboxypeptidase purified from human skin (human, UniProt P15088 110-417).
T1 construct: also called human skin carboxypeptidase; carboxypeptidase purified from skin
T1 sequence (looked up): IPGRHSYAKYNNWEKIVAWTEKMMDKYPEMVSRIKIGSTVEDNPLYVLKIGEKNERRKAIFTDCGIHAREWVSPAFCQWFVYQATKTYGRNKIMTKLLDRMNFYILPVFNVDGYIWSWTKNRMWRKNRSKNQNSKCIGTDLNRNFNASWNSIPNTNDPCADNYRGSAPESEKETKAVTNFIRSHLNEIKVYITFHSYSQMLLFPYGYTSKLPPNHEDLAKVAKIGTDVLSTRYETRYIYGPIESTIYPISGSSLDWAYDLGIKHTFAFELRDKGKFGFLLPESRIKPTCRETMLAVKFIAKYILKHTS
Kind of assay: affinity chromatography on PCI-agarose. As for the experimental part: Mast cell carboxypeptidase was purified from finely chopped extracts of human skin (obtained from macroscopically normal tissue at leg amputation) using a method adapted from that of Goldstein et al. (1989, ibid). […] After washing the column, carboxypeptidase was eluted with unconjugated PCI and dialysed to remove the inhibitor. The purity of the enzyme preparation was assessed by SDS-PAGE and silver staining (Pierce, Rockford, Ill., USA). Proteolytic activity was determined by monitoring the cleavage of […] hippuryl-Phe-Arg (Sigma) at 260 nm.

B1: potato tuber carboxypeptidase inhibitor (other, UniProt P01075 1-39, looked up)
chain: QQHADPICNKPCKTHDDCSGAWFCQACWNSARTCGPYVG
notes: also called PCI
In the case of B1, the binding result is reported as “binds”.
